Measurements as given in paper PMC10636135, “Computational design of highly efficient thermostable MHET hydrolases and dual enzyme system for PET recycling” (Communications Biology, 2023).

Tests used:
MHET hydrolysis kinetics = substrate: O=C(O)c1ccc(C(=O)OCCO)cc1; experiment: MHET hydrolysis kinetics; format: biochemical, unidentified prokaryotic organism; conditions: conditions in supplement; pH 7.5; 50.0 °C
Text: MHET hydrolysis kinetics on LCC-ICCG | (LCC-ICCG and FAST-PETase) had weak catalytic activities with regard to the hydrolysis of MHET

[1] = substrate: O=C(O)c1ccc(C(=O)OCCO)cc1; experiment: initial rates, TPA by HPLC, Michaelis-Menten fit; format: biochemical, Geobacillus stearothermophilus; conditions: 50 mM sodium phosphate, pH 7.5, 50 °C, M3
Text: initial rates, TPA by HPLC, Michaelis-Menten fit on Est30 (1TQH scaffold; wild-type carboxylesterase) | single variants M1 (G130L) and M3 (G130F) (Table S13) had improved catalytic efficiencies

[2] = substrate: O=C(O)c1ccc(C(=O)OCCO)cc1; experiment: initial rates, TPA by HPLC, Michaelis-Menten fit; format: biochemical, Geobacillus stearothermophilus; conditions: 50 mM sodium phosphate, pH 7.5, 50 °C, 10 min, 0.5 μM enzyme
Text: initial rates, TPA by HPLC, Michaelis-Menten fit on Est30 (1TQH scaffold; wild-type carboxylesterase)

[3] = substrate: O=C(O)c1ccc(C(=O)OCCO)cc1; experiment: initial rates, TPA by HPLC, Michaelis-Menten fit; format: biochemical, Geobacillus stearothermophilus; conditions: 50 mM sodium phosphate, pH 7.5, 50 °C, 10 min, 0.5 μM enzyme; remark: listed apart in the source
[4] = substrate: O=C(O)c1ccc(C(=O)OCCO)cc1; experiment: initial rates, TPA by HPLC, Michaelis-Menten fit; format: biochemical, Pseudideonella sakaiensis; conditions: 50 mM sodium phosphate, pH 7.5, 50 °C

B1: LCC-ICCG (unidentified prokaryotic organism; D238C/F243I/S283C/Y127G) (protein)
chain: QSNPYQRGPNPTRSALTADGPFSVATYTVSRLSVSGFGGGVIYYPTGTSLTFGGIAMSPGYTADASSLAWLGRRLASHGFVVLVINTNSRFDGPDSRASQLSAALNYLRTSSPSAVRARLDANRLAVAGHSMGGGGTLRIAEQNPSLKAAVPLTPWHTDKTFNTSVPVLIVGAEADTVAPVSQHAIPFYQNLPSTTPKVYVELCNASHIAPNSNNAAISVYTISWMKLWVDNDTRYRQFLCNVNDPALCDFRTNNRHCQ
With B1 the Km (MHET hydrolysis kinetics) was 20.13 ± 3.69 mM and the kcat (MHET hydrolysis kinetics) was 1.41 ± 0.13 s⁻¹.

B2: Est30 (1TQH scaffold; wild-type carboxylesterase) (Geobacillus stearothermophilus; G129F) (protein)
chain: MKIVPPKPFFFEAGERAVLLLHGFTGNSADVRMLGRFLESKGYTCHAPIYKGHGVPPEELVHTGPDDWWQDVMNGYEFLKNKGYEKIAVAGLSLGGVFSLKLGYTVPIEGIVTMCAPMYIKSEETMYEFVLEYAREYKKREGKSEEQIEQEMEKFKQTPMKTLKALQELIADVRDHLDLIYAPTFVVQARHDEMINPDSANIIYNEIESPVKQIKWYEQSGHVITLDQEKDQLHEDIYAFLESLDW
notes: E. coli BL21(DE3), pET-22b(+) NdeI/XhoI, C-terminal His6 tag kept, HisTrap purified
Work on B2 yielded a Km [1] of 1.12 ± 0.45 mM and a kcat [1] of 0.75 ± 0.05 s⁻¹.

B3: Est30 (1TQH scaffold; wild-type carboxylesterase) (Geobacillus stearothermophilus) (protein)
chain: MKIVPPKPFFFEAGERAVLLLHGFTGNSADVRMLGRFLESKGYTCHAPIYKGHGVPPEELVHTGPDDWWQDVMNGYEFLKNKGYEKIAVAGLSLGGVFSLKLGYTVPIEGIVTMCAPMYIKSEETMYEGVLEYAREYKKREGKSEEQIEQEMEKFKQTPMKTLKALQELIADVRDHLDLIYAPTFVVQARHDEMINPDSANIIYNEIESPVKQIKWYEQSGHVITLDQEKDQLHEDIYAFLESLDW
notes: as for B2
Work on B3 yielded a Km [2] of 8.98 ± 2.49 mM, a kcat [2] of 1.17 ± 0.14 s⁻¹ and a kcat/Km [2] of 130 M⁻¹ s⁻¹.

B4: Est30 (1TQH scaffold; wild-type carboxylesterase) (Geobacillus stearothermophilus; G129L/I170K) (protein)
chain: MKIVPPKPFFFEAGERAVLLLHGFTGNSADVRMLGRFLESKGYTCHAPIYKGHGVPPEELVHTGPDDWWQDVMNGYEFLKNKGYEKIAVAGLSLGGVFSLKLGYTVPIEGIVTMCAPMYIKSEETMYELVLEYAREYKKREGKSEEQIEQEMEKFKQTPMKTLKALQELKADVRDHLDLIYAPTFVVQARHDEMINPDSANIIYNEIESPVKQIKWYEQSGHVITLDQEKDQLHEDIYAFLESLDW
notes: as for B2
Work on B4 yielded a Km ([3]; M8 (KL-MHETase)) of 4.56 ± 0.75 mM, a kcat ([3]; M8 (KL-MHETase)) of 21.4 ± 1.12 s⁻¹ and a kcat/Km ([3]; M8 (KL-MHETase)) of 4700 M⁻¹ s⁻¹.

B5: Est30 (1TQH scaffold; wild-type carboxylesterase) (Geobacillus stearothermophilus; G129L) (protein)
chain: MKIVPPKPFFFEAGERAVLLLHGFTGNSADVRMLGRFLESKGYTCHAPIYKGHGVPPEELVHTGPDDWWQDVMNGYEFLKNKGYEKIAVAGLSLGGVFSLKLGYTVPIEGIVTMCAPMYIKSEETMYELVLEYAREYKKREGKSEEQIEQEMEKFKQTPMKTLKALQELIADVRDHLDLIYAPTFVVQARHDEMINPDSANIIYNEIESPVKQIKWYEQSGHVITLDQEKDQLHEDIYAFLESLDW
notes: as for B2
B5 gave a Km ([2]; M1) of 5.36 ± 1.13 mM, a kcat ([2]; M1) of 2.97 ± 0.21 s⁻¹ and a kcat/Km ([2]; M1) of 550 M⁻¹ s⁻¹.

B6: Est30 (1TQH scaffold; wild-type carboxylesterase) (Geobacillus stearothermophilus; G129L/I170K/M126S) (protein)
chain: MKIVPPKPFFFEAGERAVLLLHGFTGNSADVRMLGRFLESKGYTCHAPIYKGHGVPPEELVHTGPDDWWQDVMNGYEFLKNKGYEKIAVAGLSLGGVFSLKLGYTVPIEGIVTMCAPMYIKSEETSYELVLEYAREYKKREGKSEEQIEQEMEKFKQTPMKTLKALQELKADVRDHLDLIYAPTFVVQARHDEMINPDSANIIYNEIESPVKQIKWYEQSGHVITLDQEKDQLHEDIYAFLESLDW
notes: as for B2
Work on B6 yielded a Km ([3]; M14 (KLS-MHETase)) of 1.73 ± 0.24 mM, a kcat ([3]; M14 (KLS-MHETase)) of 21.8 ± 0.62 s⁻¹ and a kcat/Km ([3]; M14 (KLS-MHETase)) of 12600 M⁻¹ s⁻¹.

B7: Est30 (1TQH scaffold; wild-type carboxylesterase) (Geobacillus stearothermophilus; G129F/I170K/M126S) (protein)
chain: MKIVPPKPFFFEAGERAVLLLHGFTGNSADVRMLGRFLESKGYTCHAPIYKGHGVPPEELVHTGPDDWWQDVMNGYEFLKNKGYEKIAVAGLSLGGVFSLKLGYTVPIEGIVTMCAPMYIKSEETSYEFVLEYAREYKKREGKSEEQIEQEMEKFKQTPMKTLKALQELKADVRDHLDLIYAPTFVVQARHDEMINPDSANIIYNEIESPVKQIKWYEQSGHVITLDQEKDQLHEDIYAFLESLDW
notes: as for B2
For B7, the Km ([3]; M13) was 2.59 ± 0.41 mM, the kcat ([3]; M13) was 21 ± 0.83 s⁻¹ and the kcat/Km ([3]; M13) was 8110 M⁻¹ s⁻¹.

B8: Est30 (1TQH scaffold; wild-type carboxylesterase) (Geobacillus stearothermophilus; I170K) (protein)
chain: MKIVPPKPFFFEAGERAVLLLHGFTGNSADVRMLGRFLESKGYTCHAPIYKGHGVPPEELVHTGPDDWWQDVMNGYEFLKNKGYEKIAVAGLSLGGVFSLKLGYTVPIEGIVTMCAPMYIKSEETMYEGVLEYAREYKKREGKSEEQIEQEMEKFKQTPMKTLKALQELKADVRDHLDLIYAPTFVVQARHDEMINPDSANIIYNEIESPVKQIKWYEQSGHVITLDQEKDQLHEDIYAFLESLDW
notes: as for B2
Protein B8 has a Km ([3]; M2, substrate range 2-20 mM) of 53.70 ± 34.77 mM, a kcat ([3]; M2, substrate range 2-20 mM) of 36 ± 18.2 s⁻¹ and a kcat/Km ([3]; M2, substrate range 2-20 mM) of 670 M⁻¹ s⁻¹.

B9: FAST-PETase (Pseudideonella sakaiensis; D186H/N233K/R224Q/R280A/S121E) (protein)
chain: QTNPYARGPNPTAASLEASAGPFTVRSFTVSRPSGYGAGTVYYPTNAGGTVGAIAIVPGYTARQSSIKWWGPRLASHGFVVITIDTNSTLDQPESRSSQQMAALRQVASLNGTSSSPIYGKVDTARMGVMGWSMGGGGSLISAANNPSLKAAAPQAPWHSSTNFSSVTVPTLIFACENDSIAPVNSSALPIYDSMSQNAKQFLEIKGGSHSCANSGNSNQALIGKKGVAWMKRFMDNDTRYSTFACENPNSTAVSDFRTANCS
B9 showed a Km [4] of 33.87 ± 2.82 mM and a kcat [4] of 2.34 ± 0.14 s⁻¹.
